Laboratory results from publication PMC7396596.

Biological target: Recombinant SCY2 (Scylla paramamosain)
Assay: SPR; Biacore T200, CM5 chip; rSCY2 immobilised (~1,000 RU); rScyreprocin 12.5-400 nM flowed over; multiple cycle kinetics, 25°C, 30 μl/min, HEPES-buffered saline

Kd: 20.8 nM
Substance: His-tagged scyreprocin (rScyreprocin) (natural protein)
